# Assay results reported in IntAct's records for PubMed 23892082.
# B1: TIP41-like protein (Homo sapiens), O75663 (parent)
# chain: MMIHGFQSSHRDFCFGPWKLTASKTHIMKSADVEKLADELHMPSLPEMMFGDNVLRIQHGSGFGIEFNATDALRCVNNYQGMLKVACAEEWQESRTEGEHSKEVIKPYDWTYTTDYKGTLLGESLKLKVVPTTDHIDTEKLKAREQIKFFEEVLLFEDELHDHGVSSLSVKIRVMPSSFFLLLRFFLRIDGVLIRMNDTRLYHEADKTYMLREYTSRESKISSLMHVPPSLFTEPNEISQYLPIKEAVCEKLIFPERIDPNPADSQKSTQVE
# Variants of: B1
# Details: with pp2aa_rat Ppp2ca
row,effect of a mutation on the interaction,Variant
1,disrupting interaction,D71L
